Laboratory results: PMC3290565

Molecular target: T1, NalC-His (Pseudomonas aeruginosa K767) (UniProt Q9HXS0)
T1 sequence: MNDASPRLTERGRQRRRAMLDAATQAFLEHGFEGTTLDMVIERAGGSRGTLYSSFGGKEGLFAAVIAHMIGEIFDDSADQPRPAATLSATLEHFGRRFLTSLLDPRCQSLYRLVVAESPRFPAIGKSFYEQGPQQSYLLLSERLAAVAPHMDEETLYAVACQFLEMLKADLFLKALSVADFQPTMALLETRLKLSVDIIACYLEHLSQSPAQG
Assay: EMSA

Sequence	binding
CTAACGAGAAACGCTCTCAGCAAACCGCCTGGAGGCTTGAACGGACCGTCCCGACGGCCCACCATGCGCACCTTCCGACCGCCACCCCGCGAGGCCCGATACCGCTC (double strand) [PA3720-proximal fragment (endpoints II)]	binds
GAGCGGTATCGGGCCTCGCGGGGTGGCGGTCGGAAGGTGCGCATGGTGGGCCGTCGGGACGGTCCGTTCAAGCCTCCAGGCGGTTTGCTGAGAGCGTTTCTCGTTAGGGTTGACGCTGGTCATTTAAGAACTGTATCGTACAGTACTGTTTTGGCAAGCACTTCCGCTCATTCCTCCGCCTTGCCTCCCCGCAGGAGTCCCCCCA (double strand) [nalC-PA3720 intergenic region]	binds
TTAGGGTTGACGCTGGTCATTTAAGAACTGTATCGTACAGTACTGTTTTGGCAAGCACTTCCGCTCATTCCTCCGCCTTGCCTCCCCGCAGGAGTCCCCCCA (double strand) [PA3720-distal fragment (endpoints I)]	no binding
